41 sequences from the nanobody polyreactivity screen of Harvey et al. (2022) can be followed below.

This series can be described thus: yeast display, Sf9 membrane polyspecificity reagent, FACS + sequencing; frameworks hold sequencing errors. The gist of the method:
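Using colony PCR, genes from sorted yeast display clones were amplified, then sequenced on MiSeq at 2 × 250 and filtered by CDR length. The clones had been stained with 10% biotinylated, detergent-solubilized Sf9 membrane reagent for 1 hour at 4 °C and sorted by FACS into low and high (top ~1%) gates on anti-HA and streptavidin fluorescence. Polyreactivity labels come from the gate of origin.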
On to “QVQLVESGGGLVQAGGSLRLSCAASGFIFGSNAMGWYRQAPGKERELVAAISRSGGSTYYADSVKGRFTISRDNAKNTVYLQMNSLKPEDTAVYYCNVDLWPFVYSWWSYDYWGQGTQVTVSS”, for which the “polyreactivity (PSR sort gate)” value is recorded as “high polyreactivity”.
With “QVQLVESGGGLVQAGGSLRLSCAASGRTFYYYAMGWYRQAPGTERELLAAISWSVGRTYYADSVKGRFTISRDNAKNTVYLQMNSLKPEDTAVYFCNAEPPRGYTVSSGREMVYWGQGTQVTGSS”, the “polyreactivity (PSR sort gate)” value is “low polyreactivity”.
As for “QVQLVESGGGLVQAGGSLRLSCAASGSNISDNEMGWYRPAPGKESELVAAINWGGTNTYYADSVKGRYTISRDNAKNTVYLQINRLKPEDTAVYYCNADIPRRPIRHYLYDYWGQGTQVTVSS”, the “polyreactivity (PSR sort gate)” value was “low polyreactivity”.
Regarding “QVQLVESGGGLVQAGGSLRLSCAASGNILYDNAMGSYRQAPGKERELVAAIDWSGGSTYYADSVKGRFTISRDNAKNTVYLQMNSLKPEDTAVYYCAAESYIGKYGSYDYWGLGTQVTVSS”, the “polyreactivity (PSR sort gate)” value is on record as “low polyreactivity”.
“QVQLVESGGGLVQAGGSLRLSCAASGSIFLYYAMGWYRQAPGKERELVASISSGGSTNYADSVKGRFTISRDNAKNTVYLQMNSLKPEDTAVYYCAARPYGGGRRSIYYYWGQGTQVTVSS”: the “polyreactivity (PSR sort gate)” value is given as “high polyreactivity”.
On to “QVQLGESGGGLVQAGGSLRLSCAASGFIFYVYAMGWYRQAPGKERELVAAISWSGDRTYYADSVKGRFTISRDNAKNTVYLQINSLKPEDTAVYYCAVERSVYSYYYWGQGTQVTVSS”, for which the “polyreactivity (PSR sort gate)” value was “high polyreactivity”.
Regarding “QVQLVESGGGLVQAGGSLRLSCAASGSIFSYYAMGWYRQAPGKERELVAAITSGGATTYYADSVKGRFTISRDNAKNTVYLQMNSLKPEDTAVYYCAAGYYVYYRWWELDYWGQGTQVTVSS”, the “polyreactivity (PSR sort gate)” value is reported as “low polyreactivity”.
For “QVQLVESGVGLVQAGGSLRLSCAASGFIFYSYAMGWYRQAPGKERELVAAISRSGGITYYADSVKGRFTISRDNAKNTVYLQMNSLKPEDTAVYYCAKVGRGVSSIKDMDSWGQGTQVTVSS”, the “polyreactivity (PSR sort gate)” value is “high polyreactivity”.
In the case of “QVQLVESGGGLVQAGGSLRLSSAASGSTFSLNAMGWYRQAPGKERELVASISSGDSTNYADSVKGRFTISLDNAKNTVYLQMNSLKPEDTAVYYCAADGWVLSLARGYYTYDYWGLGTQVTVSS”, the “polyreactivity (PSR sort gate)” value is reported as “low polyreactivity”.
Regarding “QVQLVESGGGLVQAGGSLRLICAASGRTFRGDAMGWYRPAPGKERELVAAITKSGGSTYYADSVKGRFTISRDNAKNTVYLQMNSLKPEDTAVYYCAKLRSSRDYDYWGQVTQVTVSS”, the “polyreactivity (PSR sort gate)” value is reported as “high polyreactivity”.
“QVQLVESGGGLVQAGGSLRLSCASSGRTFAYNAMGRYRQAPGKERELVAAITSSGGSTYYADSVKGRFTISRDNAKNTVYLQMNSLKPEDTAVYYCASYVRPDYYAIHVDYWGQGTQVTVSS”: the “polyreactivity (PSR sort gate)” value is “low polyreactivity”.
Take “QVQLVESGGGLVQAGGSLRLSCAASGFIFYDYAMGWYRQAPGKERELVAAISSGGSTNYADSVKGRFTISRDNAKNSVYLQMNSLKPEDTAVYYCAADDRSYATWKRDYDYWGQGTQVTVSS”: the “polyreactivity (PSR sort gate)” value is “low polyreactivity”.
Take “QVQLVESGGGLVQAGGSLRLSCAASGSTFGLNPMGWYRQAPGKERELVAAISTSGGSTYYADSVKGRFTISRDNAKNTVYLQMNSLKPEDTAVYYCAAEVVAGYDYSQYYYWGQGTQVTVSS”: the “polyreactivity (PSR sort gate)” value is “low polyreactivity”.
For the sequence “QVQLVESGGGIVQAGGSLRLSCAASGSTFEHNAMGWYRQAPGKEREFVAAITGSGGSTYYADSVKGRFTISRDNAKNTVYLQMTSLKPEDTAVYYCAADIQDGWYWWDIYDYWGQGTQVTVSS”, the “polyreactivity (PSR sort gate)” value is on record as “low polyreactivity”.
“QVKLVESGGGLVQAGGSLRLSCAASGFTYSANTMGWSRQAPGKERELVAAITRGGRPYYADSVKGRFTISRDNAKNTVYFQMNSLKPEDTAVYYCAKRATWYTVPREGYWGQGTQVTVSS”: the “polyreactivity (PSR sort gate)” value was “high polyreactivity”.
Turning to “QFQLVESGGGLVQAGGSLRLSCAASGIIFGNNAMGWYRQAPGKERELVAAIRWSTGTTYYADSVKGRFTISRDNAKNTVYLQMNSLKPEDTAVYYCAARLRREYGYWGQGTQVTVSS”, the “polyreactivity (PSR sort gate)” value was “high polyreactivity”.
For the sequence “QVQLEESCGGLVQAGGSLRLSCAASGSIFGTYAMGLYRHAPGKEREFVADISGIGTSTYYADSVKGRFTISRDNAKNTVYLQMNSLKPEDTAVYYCAAESFDTVEYDYWGQGTQVTVSS”, the “polyreactivity (PSR sort gate)” value was “low polyreactivity”.
For the sequence “QVQLVESGGGLVQAGGSLRLSCAASGYILTHYAMGWYRQAPGKERELVAAITRVGNSNYADSVKGRFTISRDNAKNTVYLQMNSLKPEDTAVYYCAADGVASLFGDPPTEFDYWGQGTQVTVSS”, the “polyreactivity (PSR sort gate)” value is “low polyreactivity”.
Turning to “QVQLVESGGGLVQAGGSLRLSCAASGSIFYSYAMGWYRQAPGKERELVAAISWDASTYYADSVKGRFTISRDNAKNTVYLQMNSLKPEDTAVYFCNADIPYYFVYDAYDYWGQGTQVTVSS”, the “polyreactivity (PSR sort gate)” value was “low polyreactivity”.
For “QVQLVESGGGLVQAGGSLRLSCAASGSIFIRNAMGWYRQAPGKERELVAAITSGGNTYYADSVKGRFTISRDNAKNTVYFQMNSLKPEDTAVWGQGTQVTLSS”, the “polyreactivity (PSR sort gate)” value is recorded as “low polyreactivity”.
Take “QVQLVESGGGLVQAGGSLRLSCAASGRIFSGNAMGWYRQAPGKERELVAAISGSGGSTYYADSVKGRFTISRDNAKNTVYLQMNSLKPEDTAVYYCADRYTVRRSGYWGQGTQVTVSS”: the “polyreactivity (PSR sort gate)” value was “high polyreactivity”.
Consider “QVQLVASGGGLVQAGGSLRLTCAASGSIFYAYAMGWSRQAPGKERELVASINSGGNTYYADSVKGRFTISRDNAKNTDYLQMNSLKAEATAVYYCAVDSKDNNDHWGQGTQVTVSS”, for which the “polyreactivity (PSR sort gate)” value is listed as “low polyreactivity”.
Consider “QVQLVESGGGLVQAGGSLRLSCAATGSTFYQYALGWYRQAPGKERELVAAISSRGTSTYYADSVKGRFTISRDNAKNTVYLQMNSLKPEDTAVYYCATEYTNWHRTWSLQTGGYGYWGQGTQGTVSS”, for which the “polyreactivity (PSR sort gate)” value was “high polyreactivity”.
Regarding “QVQLVESGGGLVQAGGSLRLTCAASGGIFQFYDMGWYRQAPGKERELVAAITSSGGSTYADSVKGRFTISRDNAKYTVYLQMNSLKPEVTAVYYCAASLVWEYAPGWRFKYGYWGQGTQVTVSS”, the “polyreactivity (PSR sort gate)” value is given as “high polyreactivity”.
As to “QVQLVESGGGLVQAGGSLRLTCAASGRIFGYYVMGWYRQAPGKERELVAAIRSSADSTYYADSVKGRFTISRDNAKNTVYLQMNSLKPEDTAVYYCNADTTGYWSYGFQYYGEDYWGQGTQVTVSS”, the “polyreactivity (PSR sort gate)” value was “low polyreactivity”.
On to “QVQLVESRAGLVQEGGSLRVSCAASGNILGTYAMGWYRQAPGKERELVAAISSSVGSTYYADSVKARFTISRDNAKNTVYLQINSLKPEDTAVYYCAPQPRVDYEFPYRYGYWGQGSQVTVSS”, for which the “polyreactivity (PSR sort gate)” value is reported as “low polyreactivity”.
Take “QVQLVESRGGLVQAGGSLRLSCAASRSTFGVNAMGWYRQAPGKERELVARISSGVRTYYADSVKGRFTISRDNAKNTVYLQMNSMIPEDTAVYYCAAVYFRGVDRAFLSYSYYYWGQGTQVTVSS”: the “polyreactivity (PSR sort gate)” value is on record as “high polyreactivity”.
On to “QVQLVESGGGLVQAGGSLRLSCAASGRTFASNAMGWYTQAPGKERELVAAITISGGRTYYADSVKGRFTISRDNAKNTVYLQMNSLIPEDTAVYYCAAAKHSWRPSYYWGGYWGQGTQVTVSS”, for which the “polyreactivity (PSR sort gate)” value was “low polyreactivity”.
As for “QVQLVESGGGLVQAGGSLRLSCAASGFTFRYYVMGWYRQAPGTERELVAAISWTGGSTYYADSVKGRFTISRDNAKNTVYLQMTSLKPEDTAVYYCNAASLSKSDYWGQGTQVTVSS”, the “polyreactivity (PSR sort gate)” value is “high polyreactivity”.
Consider “QVQLVESGGGLVQAGGSLRLSCAASGFTLAWYAMGWYRQAPGKERELVATIRSGGNTYYADSVKGRFTISRDNAKNTVYLQMNSLKPEDTAVYYCAKTHTYPRYGRGYDYWGQGTQVTVSS”, for which the “polyreactivity (PSR sort gate)” value was “high polyreactivity”.
Turning to “QVQLVESGGGLVQAGGSLRLSCAASGFTIYYYAMGWYRQAPGKVRELVASITSGGSTYYADSVKGRFTISRDNAMNTVYLQMNSLKPEDTAVYYCAQTRFHSKEGDYWGQGTQVTVSS”, the “polyreactivity (PSR sort gate)” value is reported as “low polyreactivity”.
Consider “QVQLVESGGGLVQAGGSLRLSCAASGFTFWNNAMGWYRQAPGKERELVAAISWSGGSTYYADSVKGRFTISRDNAKNTFDLQMNRLKPEDSAVYYCAAGDGPWLPRVHYGGYGYWGQGTQVTVSS”, for which the “polyreactivity (PSR sort gate)” value is given as “high polyreactivity”.
In the case of “QVQLVESGGGLVQAGGSLRLSCAASGRTFTYYAMGWYIQAPGKEREFVASISLSGGRTYYADSVKGRFTISRDNAKNTVYLQMNSLKPEDTAVYYCNAYYPRVDRYDYWGQGTQVTVSS”, the “polyreactivity (PSR sort gate)” value is reported as “low polyreactivity”.
Consider “QVQLVESGGRLVQAGGSLRFSCAASGGIFESYAMGGYRQAPGQERELVASISSGGSTYYADSVKGRFTISRDNAKNTVYLQMNSLKPEDTAVYYCNTDNGSHGMDYWGQGTQVTVSS”, for which the “polyreactivity (PSR sort gate)” value is listed as “low polyreactivity”.
The value for “QVQLVESGGGLVQAGGSLRLSCAASGSTFDYNAMGWYRQAPGKERELVAAIRWSGDTTYYADSVKGRFTISRDNAKNTVYLQRNSLKPEDTAVYYCANVPIYRYGVWAMNYWGQGTQVTVSS” was “high polyreactivity”; that for “QLQHVESGGGLVQAGGSLRLSCADSGFILYLNAMGWYRQAPGKERELVATITNRGGSTYYADTVKGRFTISRDNAKNTVYLQMNSLKPEDTAVYYCAARTRERYSKPYFYRRFGYWGQGTQVTVSS” was “low polyreactivity”.
Take “QVQLVESGGGLVQAGGSLRLSCAASGSIFYSNAMGWYRQAPGKERELVAAIRTSAGSTYYADSVKGRFTISRDYAKNTVYLQMTSLKPEDTAVYYCAAVTTYYYYDVTDYAYEYYYWGQGTQVTVSS”: the “polyreactivity (PSR sort gate)” value is given as “low polyreactivity”.
In the case of “QVQHVESGGGLVQAGGSLRLSCAASGRTFISNAMGWYRQAPGKERELVATINSGGSTNYADSVKGRFTISRDNAKNTVYLQMNSLKPEDTAVYYCARRVRYKHYDYWGQGTQLTVSS”, the “polyreactivity (PSR sort gate)” value is “high polyreactivity”.
Regarding “QVQLVESGGGLFQEGGSLRLSCAASGSTFPSYAMGWYRQAPGKERELVAAINSGGGTNYADSVKGRFTISRDNAKNTVYLQMNSLKADDTEVYYCAKSRYDYTKSEGGYWGQGTQVTVSS”, the “polyreactivity (PSR sort gate)” value is reported as “low polyreactivity”.
The value for “QVQLVESGGGLVQAGGSLRLSCAASGSTFYVYAMGWYRQAPGKERELVAAISRSGGSTYYADSVKGRFTISRDNAKNTVYLQMNSLKPEDTAVYYCAARGYSTYPMDYWGQGTQVTVSS” was “high polyreactivity”; that for “QVQLVESGGGLVQAGGSLRLSCAASGRTFNRYGMGWYRQAPGKERELVASITSGGSTNYADSVKGRFTISRDNAKNTVYLQMNSLKPEDTAVYYCAKRSIGRYPRTYDYWGQGTQVTVSS” was “low polyreactivity”.
